± gives the uncertainty stated by the source.
experiment: amyloid nucleation score (Sup35N fusion, yeast selection) (log enrichment); library NNK2; higher = more nucleation; inactive = no reads after selection
Outline: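 After 24 hours of induction with 100 μM copper sulfate, psi-negative yeast expressing peptides of 20 random codons fused to Sup35N were grown for 7 days at 30°C on medium lacking adenine and uracil. Input and output plasmid inserts were sequenced with Illumina, and sequences with under 100 input reads were discarded. Scores for nucleation are the DiMSum log enrichment of output over input reads, centred on the mode score of non-aggregating sequences.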

Substance | amyloid nucleation score
PVLTYFKLQLMM | 2.23 ± 0.066
VGKLS | -0.528 ± 0.29
SFSPFVYG | -0.868 ± 0.44
VVSWCVEVNPRERAKVDMCR | 4.25 ± 0.047
PHLEGVSCVVVKHQLRS | 0.82 ± 0.17
ANFGALHRAHESVECSLY | inactive
CLFYRCCMHDPRSLLEKGRP | 5.835 ± 0.037
SGARPVYFWLLIPLSYKL | 0.285 ± 1
TGALVNM | 0.13 ± 1.1
TVAVRSPIT | -0.686 ± 0.44
DTALFYSNNVMTSKVGAQKS | -0.003 ± 1.1
VSNFSRYHLSCYSMVRLLLD | -0.532 ± 0.36
MVFVFKDSLIFSRSLYIMEC | -1.34 ± 0.41
YLKMALVMIMYVITYRSTVG | 1.65 ± 0.31
MGSGSIFT | 0.287 ± 0.45
TTHLLFLFLALKNNPRTILT | -0.294 ± 1.1
QIIVLALMMWMGCRRRMERK | 0.414 ± 0.65
MGFQVYLGRGLNDFKAE | 2.66 ± 0.11
YYSISGISFWFSK | 8.381 ± 0.06
PGYNSFLWWAAME | -0.271 ± 0.34
RGLRA | -0.213 ± 0.41
SRMFVFNVGVIEFWKLGGYN | -0.716 ± 0.64
TISFELSGMGIPSLWICGSR | 0.252 ± 0.65
RTCTNYVMINETVVR | inactive
LDWHAEHKGSCSFPDNEMLS | 0.394 ± 0.56

Substance | amyloid nucleation score
QCYIVCFICSRYTNQVKLLY | 1.38 ± 0.14
YNSTALKVSWRVRLGPWNWI | -0.06 ± 1.1
VHAPLLRRPNVLHTKLH | 0.112 ± 1.1
WVLYGASLCYPWVTSSKLRA | 0.589 ± 0.42
CMESRCFEL | 0.438 ± 0.56
YVSEQTHPMVIMYHFLRQHQ | -0.181 ± 0.5
NHSTVYLLMEISTGLVISGN | 1.99 ± 0.16
LTGMVTCATI | 0.53 ± 0.36
IAGYGVHTLVQCVV | 0.082 ± 1
YCVSNWASNFSLLLYNGNMY | inactive
PRLNISLVMCNMFVGRGRFH | 8.705 ± 0.039
RYFWRVSNIVWASAF | -0.498 ± 0.44
YTRLYFNEHDFYFFVGIMT | inactive
TNEAIEMS | inactive
FSFYLGRKSMRWCNSCWYSW | -0.445 ± 0.22
PNNINRFRRSYFY | -1.14 ± 0.49
NLALFCLVLMMEHQRFPCKA | 4.49 ± 0.072
HVLYDCMGVIIKSCHYLDLC | -0.508 ± 0.37
NPGGMQDEQEVVIWAPTRFL | -0.161 ± 0.39
FYDVSCTRTDIMVESTSRLS | 5.24 ± 0.086
TVDNPSNSFTFFRVYQLYVR | 3.11 ± 0.14
LISTELGPTSFYLHKSLSSR | -1.02 ± 0.62
FRVDYKMKCAFASHFSNSFY | inactive
LIYIICVSLFSRVVMVIANF | -1.25 ± 0.78
GPLSNLYTKYDANENDGFIL | -0.321 ± 0.41

Substance | amyloid nucleation score
LRWQKNLNSL | -0.778 ± 0.64
TMYWTAMMISGDLACQIGSR | 6.127 ± 0.046
IGVSLTYKIQVSTRLFSTLY | 3.29 ± 0.15
RFYIALMDFRSMIFGS | 5.195 ± 0.046
RNIRWPAHISAGDKGVSGEF | -0.65 ± 1
FRRNKNN | inactive
ELCTKAINVMN | 0.433 ± 0.48
VHCREWEIIRMINLSRKQRV | -0.419 ± 0.46
LIARSLGFKNVWS | -0.575 ± 0.54
RCMGPIVPFDVNS | -0.704 ± 0.33
NRCRNNGQLRGQCICGSVCL | -0.284 ± 0.39
HTTGFPFRGLGDIDSLAEQF | -0.217 ± 0.79
GALYLRDVLVICIMCGKIRY | 2.73 ± 0.1
WSWLSFYLSGMAFLVRYKSG | -0.344 ± 0.56
GLGAKYWIYVVGFHCVHN | 0.289 ± 0.39
RQGPALFSKINIATLKWLSM | 0.511 ± 0.62
NITLRSQGIVRGQTFICLFW | -0.354 ± 0.56
VFWLLGCVHNRGVGQTSHKL | 0.741 ± 0.47
NSSTTHAGLVYYYSGKGPRV | inactive
GSVTVCIMSRR | -0.729 ± 0.64
SSPGSCIMSENWVNSSWRFT | inactive
DDRCATSNIHLLLHPLCTYL | 0.754 ± 0.37
ENGRYHFFKAEHWFCRLMMM | inactive
RYVYRTVGWHQFLCGTVLFW | 0.588 ± 0.16
YVATKYMRLNTCNLFWGGLT | 6.368 ± 0.05

Substance | amyloid nucleation score
TITILV | 0.089 ± 0.23
KSRIDSESGGGQSFS | -0.805 ± 0.63
YWYWWSSWY | 1.6 ± 0.29
IQVRRITG | 0.089 ± 0.29
NWPNPVSLMSRIDFRMV | -0.131 ± 0.31
CECLRDESER | 2.1 ± 0.29
RKQNTVQWSNHFLHCKMPST | inactive
KIVLGYCVLKITEQELMLWV | inactive
WLTLGVYELRWMRSPNTGCL | 1.8 ± 0.23
LCSTG | 0.815 ± 0.53
LHQTV | 0.79 ± 0.57
GADGISCFGISDKLGYDKFL | -0.1 ± 1
TLMKVRVYSSYGKVHVGSLA | 5.03 ± 0.08
SRVWFVNPAPYPADTSELAK | 0.509 ± 0.8
MMAIFWGFSVQRRRGSGIDL | 2.74 ± 0.18
AVLFRRVAFRHNWPW | 0.995 ± 0.68
TLAYMNGVA | -0.928 ± 0.63
GIFSCRLCSMLIELLMLRIM | -0.505 ± 1.1
SEERPKETRGGFWARVSSGG | 0.228 ± 0.74
HLNFRSGILAISFIFDLSNH | inactive
FLVVGGT | -0.112 ± 0.21
NVFLLSVREMSSFLRTTTLG | 1.24 ± 0.17
QQGYVTLSNFCGRA | -0.292 ± 0.5
SRSLNWPSAGKLKSDYEFVV | -0.675 ± 0.3
WSCCKFLDCHITVCDFLVWA | 7.587 ± 0.047

Substance | amyloid nucleation score
DDVKDNVYGSVEALKPRSG | 0.467 ± 0.17
YWKVFFKAGWVVQSSAGMSA | 4.64 ± 0.068
SMSMYTPNFFDFVVVRPTIY | inactive
CCWLAMRVRFTMASKLPNFE | 3.34 ± 0.083
QRSNGTNYHPPYKMKISHRP | inactive
DYNFIQRNNCGALCKYAKTL | -1.55 ± 0.62
CNYMPVPRPSMVMSFVSVTV | inactive
TDIRTSGDERWAFDSMRTGD | 0.701 ± 0.37
ATKRGVHSQLCDCLRCMEFS | 0.386 ± 0.32
MIGSGVW | -1.07 ± 0.78
RKEIRGLTMTRPIVDPMRTK | 0.932 ± 0.81
IESSEQSWT | -0.75 ± 0.36
SFIWEYNMYYTGLGRITWMP | 0.922 ± 0.34
RTLGHSLYPIDIYMGSDHLG | inactive
FYFDGQLV | -0.743 ± 0.76
KNVLLKTLVHWLGRGMSAPG | 0.165 ± 1
VFDIWFLGSDTSSCVNWTYR | 6.583 ± 0.048
GLHSGNFTACICM | 8.731 ± 0.055
NLGNDGHSELRHYSNL | inactive
SWGYNRF | inactive
AFPKLRAGSSLLCA | 0.74 ± 0.29
DAHTMIGRYTDSSLRHRTWV | 1.05 ± 0.3
IFSTGNVKGNLTR | -0.491 ± 0.22
LVWCAISSNNKGLINVLADS | -1.47 ± 0.5
SGTYR | inactive

Substance | amyloid nucleation score
FSTCYPPSDWVSRMASETLN | -0.096 ± 0.65
FKNFFSYLLLGVPLIAAITW | -1.67 ± 0.41
CIFCYANVFAYFTTKGLFVQ | -0.885 ± 0.38
AYGVSPI | -0.093 ± 0.35
RKVTAVHLRHPP | 2.2 ± 0.15
IIAEFDSGWSEAFDSCLGMS | -0.114 ± 0.54
GLRHGLCRSLLY | -0.642 ± 1.1
YICRGASGIKSQLREWDVAH | -0.269 ± 0.74
SLAHQAFAEPSWTKVEE | 0.278 ± 0.26
FAKLKIIGSARKYK | -1.19 ± 0.61
MRSFCFSVQNIQVTYHVGLA | 3.94 ± 0.1
FSRQISNGFIRGLFL | inactive
LHQGSVCWDWLPVYEVTVLG | 0.049 ± 0.44
QCVKLNTNVLCTVSDYNARG | 1.2 ± 0.11
LLACLKGTSGAGRIYAYLMT | -0.096 ± 0.3
LSPIVVPLYKQLDIFGVRRN | inactive
WSTSFYLLIFTPRVCCMDFF | 5.619 ± 0.034
NNSYTGPVSCNHVAGCGTGH | -0.387 ± 1.1
YNLYHSCLDQRTYHSGKFSI | 2.3 ± 0.14
SSSVSRPRCFFRSWFYIHVR | -1.21 ± 0.49
DNVGYYNINKDLKFIVGSSH | 0.274 ± 1.1
FCSHVGLVYCTYIMMRVSMR | 5.501 ± 0.034
FLNSWQVGYLSCSSKLVACN | inactive
SCRTQVMVLSLLFKRKVGFN | -1.28 ± 0.36
IHIWGSLSIDIEFVCGRQAK | 1.99 ± 0.27

Substance | amyloid nucleation score
CHWSTGRYRDVMICVLWGIS | -0.049 ± 0.34
NFPRRSRVLKYCITLSSNHS | -0.158 ± 0.5
LCDPLLVKNCRLRLTVLWGM | -0.057 ± 0.63
VCELGRRWDLRSVLSC | 0.624 ± 0.42
IVGTDSQHVLVLQIFCVCLR | -0.326 ± 1.1
AMLLANALIWNRICGDRRLA | 0.823 ± 0.4
THWMKRRVVA | 1.33 ± 0.17
AFRSSSPSRVHELRQMKELV | 1.14 ± 0.3
LKIFLLIVVGDDFMKSKYCP | -0.612 ± 0.64
SCAVSIVTGRGVHSFVKAWF | 0.547 ± 0.17
FFIIGDCGVLSCPAGGQLWS | 7.177 ± 0.037
VTNHV | 0.895 ± 0.33
AHYIASVDWIFKM | -1.32 ± 0.41
VNGTTGRSCNKNLDVFNSSI | -0.35 ± 1.1
RITFVILYDAFGEDMDLVSL | 2.09 ± 0.12
FIMSSVCMIRCNITCSHQPS | 8.21 ± 0.035
LGQVTDLSILCSSDQSLMVC | -0.075 ± 0.26
LTWRYLLYPLDKFGLETWVL | 0.375 ± 0.46
SILDATCCLGFYKVFAVGMK | -0.669 ± 0.44

— the supplement of paper PMC12042874
